The target of the assay is T1, recombinant human netrin-1 (R&D) (human, UniProt O95631 25-604, limits assumed).
T1 construct: Bought recombinant protein; also called h-netrin-1; human recombinant netrin-1
Nature of the assay: bio-layer interferometry. Background: Biolayer interferometry detects binding as a change in optical thickness at a sensor tip.

1 molecule from US20240342322A1 (NETRIS PHARMA, published 2024) can be followed below.

B1: recombinant human Vitronectin (other, UniProt P04004 20-478, looked up)
chain: DQESCKGRCTEGFNVDKKCQCDELCSYYQSCCTDYTAECKPQVTRGDVFTMPEDEYTVYDDGEEKNNATVHEQVGGPSLTSDLQAQSKGNPEQTPVLKPEEEAPAPEVGASKPEGIDSRPETLHPGRPQPPAEEELCSGKPFDAFTDLKNGSLFAFRGQYCYELDEKAVRPGYPKLIRDVWGIEGPIDAAFTRINCQGKTYLFKGSQYWRFEDGVLDPDYPRNISDGFDGIPDNVDAALALPAHSYSGRERVYFFKGKQYWEYQFQHQPSQEECEGSSLSAVFEHFAMMQRDSWEDIFELLFWGRTSAGTRQPQFISRDWHGVPGQVDAAMAGRIYISGMAPRPSLAKKQRFRHRNRKGYRSQRGHSRGRNQNSRRPSRATWLSLFSSEESNLGANNYDDYRMDWLVPATCEPIQSVFFFSGDKYYRVNLRTRRVDTVDPPYPRSIAQYWLGCPAPGHL
notes: also called h-Vitronectin
Turning to B1, the binding result is recorded as “binds”.
